Assay [1] deals with Antigen 2. The experiment in a line: ELISA, supernatant 1 TO 1024, Plate 2 (Antigen 2), column 10, BLANK 0.07.
Assay [2] has as its target Antigen 1. The experiment in a line: ELISA, supernatant 1 TO 64, Plate 1 (Antigen 1), column 10, BLANK 0.07.
Assay [3] deals with Antigen 2. The experiment in a line: ELISA, supernatant 1 TO 256, Plate 2 (Antigen 2), column 10, BLANK 0.07.
Assay [4] concerns the target Antigen 1. The experiment in a line: ELISA, supernatant 1 TO 256, Plate 1 (Antigen 1), column 10, BLANK 0.07.
Assay [5] deals with Antigen 2. Kind of assay: ELISA, supernatant 1 TO 4096, Plate 2 (Antigen 2), column 10, BLANK 0.07.
The target in assay [6] is Antigen 2. The experiment in a line: ELISA, supernatant 1 TO 16, Plate 2 (Antigen 2), column 10, BLANK 0.07.
The target in assay [7] is Antigen 2. The experiment in a line: ELISA, supernatant 1 TO 4, Plate 2 (Antigen 2), column 10, BLANK 0.07.
For assay [8], the target named is Antigen 2. Kind of assay: ELISA, supernatant UNDILUTED, Plate 2 (Antigen 2), column 10, BLANK 0.07.
Assay [9] has as its target Antigen 1. Kind of assay: ELISA, supernatant 1 TO 16, Plate 1 (Antigen 1), column 10, BLANK 0.07.
Assay [10] has as its target Antigen 1. Kind of assay: ELISA, supernatant UNDILUTED, Plate 1 (Antigen 1), column 10, BLANK 0.07.
Assay [11] concerns the target Antigen 1. Kind of assay: ELISA, supernatant 1 TO 4096, Plate 1 (Antigen 1), column 10, BLANK 0.07.
Assay [12] deals with Antigen 2. The experiment in a line: ELISA, supernatant 1 TO 64, Plate 2 (Antigen 2), column 10, BLANK 0.07.
Assay [13] has as its target Antigen 1. Kind of assay: ELISA, supernatant 1 TO 1024, Plate 1 (Antigen 1), column 10, BLANK 0.07.
Assay [14] addresses Antigen 1. Kind of assay: ELISA, supernatant 1 TO 4, Plate 1 (Antigen 1), column 10, BLANK 0.07.
Assay [15] addresses Antigen 2. The experiment in a line: ELISA, supernatant 1 TO 16, Plate 2 (Antigen 2), column 8, BLANK 0.07.
Assay [16] concerns the target Antigen 2. Kind of assay: ELISA, supernatant UNDILUTED, Plate 2 (Antigen 2), column 8, BLANK 0.07.
Assay [17] concerns the target Antigen 1. Kind of assay: ELISA, supernatant 1 TO 256, Plate 1 (Antigen 1), column 8, BLANK 0.07.
Assay [18] concerns the target Antigen 1. Kind of assay: ELISA, supernatant 1 TO 16, Plate 1 (Antigen 1), column 8, BLANK 0.07.
In assay [19] the target is Antigen 2. Kind of assay: ELISA, supernatant 1 TO 256, Plate 2 (Antigen 2), column 8, BLANK 0.07.
Assay [20] deals with Antigen 2. Kind of assay: ELISA, supernatant 1 TO 64, Plate 2 (Antigen 2), column 8, BLANK 0.07.
Assay [21] has as its target Antigen 2. Kind of assay: ELISA, supernatant 1 TO 4096, Plate 2 (Antigen 2), column 8, BLANK 0.07.
Assay [22] has as its target Antigen 1. Kind of assay: ELISA, supernatant 1 TO 1024, Plate 1 (Antigen 1), column 8, BLANK 0.07.
In assay [23] the target is Antigen 1. Kind of assay: ELISA, supernatant 1 TO 64, Plate 1 (Antigen 1), column 8, BLANK 0.07.
Assay [24] deals with Antigen 1. Kind of assay: ELISA, supernatant UNDILUTED, Plate 1 (Antigen 1), column 8, BLANK 0.07.
For assay [25], the target named is Antigen 2. Kind of assay: ELISA, supernatant 1 TO 1024, Plate 2 (Antigen 2), column 8, BLANK 0.07.
Assay [26] has as its target Antigen 1. The experiment in a line: ELISA, supernatant 1 TO 4, Plate 1 (Antigen 1), column 8, BLANK 0.07.
Assay [27] addresses Antigen 1. Kind of assay: ELISA, supernatant 1 TO 4096, Plate 1 (Antigen 1), column 8, BLANK 0.07.
For assay [28], the target named is Antigen 2. Kind of assay: ELISA, supernatant 1 TO 4, Plate 2 (Antigen 2), column 8, BLANK 0.07.
Assay [29] deals with Antigen 1. Kind of assay: ELISA, supernatant 1 TO 256, Plate 1 (Antigen 1), column 3, BLANK 0.07.
Assay [30] concerns the target Antigen 2. The experiment in a line: ELISA, supernatant 1 TO 256, Plate 2 (Antigen 2), column 3, BLANK 0.06.
Assay [31] deals with Antigen 2. The experiment in a line: ELISA, supernatant 1 TO 4, Plate 2 (Antigen 2), column 3, BLANK 0.06.
In assay [32] the target is Antigen 1. The experiment in a line: ELISA, supernatant 1 TO 1024, Plate 1 (Antigen 1), column 3, BLANK 0.07.
Assay [33] concerns the target Antigen 1. The experiment in a line: ELISA, supernatant UNDILUTED, Plate 1 (Antigen 1), column 3, BLANK 0.07.
In assay [34] the target is Antigen 2. Kind of assay: ELISA, supernatant 1 TO 1024, Plate 2 (Antigen 2), column 3, BLANK 0.06.
For assay [35], the target named is Antigen 1. Kind of assay: ELISA, supernatant 1 TO 4, Plate 1 (Antigen 1), column 3, BLANK 0.07.
Assay [36] has as its target Antigen 2. The experiment in a line: ELISA, supernatant 1 TO 16, Plate 2 (Antigen 2), column 3, BLANK 0.06.
For assay [37], the target named is Antigen 2. The experiment in a line: ELISA, supernatant 1 TO 4096, Plate 2 (Antigen 2), column 3, BLANK 0.06.
The target in assay [38] is Antigen 2. The experiment in a line: ELISA, supernatant UNDILUTED, Plate 2 (Antigen 2), column 3, BLANK 0.06.
Assay [39] concerns the target Antigen 1. The experiment in a line: ELISA, supernatant 1 TO 4096, Plate 1 (Antigen 1), column 3, BLANK 0.07.
For assay [40], the target named is Antigen 1. Kind of assay: ELISA, supernatant 1 TO 16, Plate 1 (Antigen 1), column 3, BLANK 0.07.
For assay [41], the target named is Antigen 2. Kind of assay: ELISA, supernatant 1 TO 64, Plate 2 (Antigen 2), column 3, BLANK 0.06.
In assay [42] the target is Antigen 1. Kind of assay: ELISA, supernatant 1 TO 64, Plate 1 (Antigen 1), column 3, BLANK 0.07.

B1: Original Heavy Chain (VH2) and Light Chain (VL2) that recognizes Antigen 2 (antibody, V domains shown)
VH: QSLEESGGRLVSPGTPLTLTCTASGFSLSSNAMGWVRQAPGEGLEYIGIIRPGGSTYYASWAKGRFTISKTSSTTVDLKMTSLTTEDTATYFCARAWDIWGPG
VL: AFELTQTPSSVEAAVGGTVTIRCQASQSISNQLSWYQQKPGQPPKRLIYRASTLASGVPARFKGSGSGTAFTLTISDLECADGATYYCQSFYYTDVIDYNAFGGGTEVVVTG
For B1, the ELISA plate reading with Antigen 2 [1] stood at 0.94; with Antigen 1 [2], 0.08; with Antigen 2 [3], 1.68; with Antigen 1 [4] it was 0.08; in the assay with Antigen 2 [5], 0.39; in the assay with Antigen 2 [6], 2.24. Moreover, the ELISA plate reading in the assay with Antigen 2 [7] is 2.38; with Antigen 2 [8], 2.27; with Antigen 1 [9], 0.08; in the assay with Antigen 1 [10], 0.09; with Antigen 1 [11] it was 0.08; with Antigen 2 [12] it was 2.19. The ELISA plate reading with Antigen 1 [13] was determined as 0.1; with Antigen 1 [14], 0.12.

B2: VH2-VH2 / VL2 (antibody)
heavy chain (VH2-CH1, PQ linker, VH2-CH1, hinge, CH2, CH3): QSLEESGGRLVSPGTPLTLTCTASGFSLSSNAMGWVRQAPGEGLEYIGIIRPGGSTYYASWAKGRFTISKTSSTTVDLKMTSLTTEDTATYFCARAWDIWGPGTLVTVSLGQPKAPSVFPLAPCCGDTPSSTVTLGCLVKGYLPEPVTVTWNSGTLTNGVRTFPSVRQSSGLYSLSSVVSVTSSSQPVTCNVAHPATNTKVDKTVAPSTCSKPTCPPPELLGGRPQPQPQPQPQPQPQPQPQPQPQPQPQPQPQPQSRQSLEESGGRLVSPGTPLTLTCTASGFSLSSNAMGWVRQAPGEGLEYIGIIRPGGSTYYASWAKGRFTISKTSSTTVDLKMTSLTTEDTATYFCARAWDIWGPGTLVTVSLGQPKAPSVFPLAPCCGDTPSSTVTLGCLVKGYLPEPVTVTWNSGTLTNGVRTFPSVRQSSGLYSLSSVVSVTSSSQPVTCNVAHPATNTKVDKTVAPSTCSKPTCPPPELLGGPSVFIFPPKPKDTLMISRTPEVTCVVVDVSQDDPEVQFTWYINNEQVRTARPPLREQQFNSTIRVVSTLPIAHQDWLRGKEFKCKVHNKALPAPIEKTISKARGQPLEPKVYTMGPPREELSSRSVSLACMINGFYPSDISVEWEKNGKAEDNYKTTPAVLDSDGSYFLYSKLSVPTSEWQRGDVFTCSVMHEALHNHYTQKSISRSPGK
light chain: AFELTQTPSSVEAAVGGTVTIRCQASQSISNQLSWYQQKPGQPPKRLIYRASTLASGVPARFKGSGSGTAFTLTISDLECADGATYYCQSFYYTDVIDYNAFGGGTEVVVTGDPVAPTVLIFPPAADQVATGTVTIVCVANKYFPDVTVTWEVDGTTQTTGIENSKTPQNSADCTYNLSSTLTLTSTQYNSHKEYTCKVTQGTTSVVQSFNRGDC
Turning to B2, the ELISA plate reading with Antigen 2 [15] is 2.14; with Antigen 2 [16], 2.28; with Antigen 1 [17] it was 0.06; with Antigen 1 [18], 0.16; in the assay with Antigen 2 [19], 1.47; in the assay with Antigen 2 [20] it was 2.1. For the same molecule, the ELISA plate reading amounted to 0.33 in the assay with Antigen 2 [21]; 0.08 in the assay with Antigen 1 [22]; 0.01 with Antigen 1 [23]; 0.15 with Antigen 1 [24]; 0.68 with Antigen 2 [25]; 0.12 in the assay with Antigen 1 [26]. The ELISA plate reading with Antigen 1 [27] is 0.07; with Antigen 2 [28] it was 2.12.

B3: Heavy Chain Construct 4 with Light Chain Construct 2 (VH2-VH1/VL2) (antibody)
heavy: QSLEESGGRLVSPGTPLTLTCTASGFSLSSNAMGWVRQAPGEGLEYIGIIRPGGSTYYASWAKGRFTISKTSSTTVDLKMTSLTTEDTATYFCARAWDIWGPGTLVTVSLGQPKAPSVFPLAPCCGDTPSSTVTLGCLVKGYLPEPVTVTWNSGTLTNGVRTFPSVRQSSGLYSLSSVVSVTSSSQPVTCNVAHPATNTKVDKTVAPSTCSKPTCPPPELLGGRPQPQPQPQPQPQPQPQPQPQPQPQPQPQPQPQSRQSVEESGGRLVTPGTPLTLTCTVSGFSLNTNAIRWVRQAPGKGLEWIGAIDASGNTYYASWAKGRFTISKTSTTVDLKITSPTTEDTATYFCNRFNTANIWGPGTLVTVSSGQPKAPSVFPLAPCCGDTPSSTVTLGCLVKGYLPEPVTVTWNSGTLTNGVRTFPSVRQSSGLYSLSSVVSVTSSSQPVTCNVAHPATNTKVDKTVAPSTCSKPTCPPPELLGGPSVFIFPPKPKDTLMISRTPEVTCVVVDVSQDDPEVQFTWYINNEQVRTARPPLREQQFNSTIRVVSTLPIAHQDWLRGKEFKCKVHNKALPAPIEKTISKARGQPLEPKVYTMGPPREELSSRSVSLACMINGFYPSDISVEWEKNGKAEDNYKTTPAVLDSDGSYFLYSKLSVPTSEWQRGDVFTCSVMHEALHNHYTQKSISRSPGK
light: AFELTQTPSSVEAAVGGTVTIRCQASQSISNQLSWYQQKPGQPPKRLIYRASTLASGVPARFKGSGSGTAFTLTISDLECADGATYYCQSFYYTDVIDYNAFGGGTEVVVTGDPVAPTVLIFPPAADQVATGTVTIVCVANKYFPDVTVTWEVDGTTQTTGIENSKTPQNSADCTYNLSSTLTLTSTQYNSHKEYTCKVTQGTTSVVQSFNRGDC
With B3, the ELISA plate reading in the assay with Antigen 1 [29] amounted to 0.07; with Antigen 2 [30], 0.52; in the assay with Antigen 2 [31] it was 1.81; with Antigen 1 [32] it was 0.06; in the assay with Antigen 1 [33], 0.66; in the assay with Antigen 2 [34], 0.21. Further, the ELISA plate reading is 0.45 with Antigen 1 [35]; 1.61 with Antigen 2 [36]; 0.14 with Antigen 2 [37]; 2.49 in the assay with Antigen 2 [38]; 0.08 in the assay with Antigen 1 [39]; 0.16 with Antigen 1 [40]. Also, the values for the ELISA plate reading with Antigen 2 [41] and with Antigen 1 [42] were 1.24 and 0.1, respectively.

(Values after patent publication US20200157190A1.)
